The values below come from paper PMC8299219 (Cell, 2021).

The assay addresses SARS-CoV-2 S ectodomain trimer, prefusion-stabilized, 2P variant (Wrapp et al., 2020) (SARS-CoV-2, Wuhan-Hu-1, UniProt P0DTC2, stabilised).

Substitutions are numbered along the chain they refer to.

B1: C15C12 (antibody, V domains shown)
VH: EVQLLESGGGLVQPGGSLRLSCAASAFTFTNYDMNWVRQAPGKGLEWVSTISGSGDITYYADFVKGRFTISRDNSKNTLNLQMNSLRADDTAVYYCAKDFARRGYNGYEEKFISMFGGVIADYGMDVWGQGTTVTVSS
VL: EIVLTQSPTTLSLSPGERVTLSCRASQSISSYLAWYQQKPGQAPRLLIYRASNRATGISARFSGSGSGTDFTLTISSLEPEDFAVYYCQQRSNWPLTFGGGTKVEIK
On to B1, for which the binding result is “binds”.

B2: C83A5 (antibody, V domains shown)
VH: QVQLVESGGGVVQPGRSLRLSCAASRFTFSSYGMHWVRQAPGKGLEWVAVIWFDGTNKYYADSVKGRFTISRDNSKNTLYLQMNSLRVEDTAVYYCARDGAYYDRSAYYYRLKFYFDFWGQGTLVTVSS
VL: SYELTQPPSVSVSPGQTARITCSGDALPNQYVYWYHQKPGQAPVLVIYKDSERPSGIPERFSGSSSGTTVTLTISGVQAEDEADYYCQSADSSGNIGVFGGGTKLTVL
Take B2: the binding result is “binds”.

B3: G32M4 (antibody, V domains shown)
VH: QVQLVESGGGVVQPGRSLRLSCAASGFTFRSYAMHWVRQAPGKGLEWVAVISYDGSNKYYADSVKGRFTISRDNSKNTLYLQMNSLRAEDTAVYYCAKSYSGSYLAAFDIWGQGTMVTVSS
VL: EIVLTQSPGTLSLSPGERATLSCRASQIFSSSYLAWYQQKPGQAPRLLIYGASSRATGIPDRFSGSGSGTDFTLTISRLEPEDFAVYYCQQYGSSITFGQGTRLEIK
For B3, the binding result is listed as “binds”.

B4: C30A5 (antibody, V domains shown)
VH: B3 VH with R30S, S31T, M83L, Y100G, S103H, L105F, A107P, I110Y, M116L
VL: not shown
In the case of B4, the binding result is on record as “binds”.

B5: G32A3 (antibody, V domains shown)
VH: QVQLVQSGAEVKRPGASVKVSCKASGYTFTSYGITWVRQAPGQGLEWMGWISAYNGNTNYAQKLQGRVTMTTDSSTSTAYMELRSLRSDDTAVYYCARTPNSVITMIVVVTQTLDYWGQGTLVTVSS
VL: QSALTQPASVSGSPGQSITISCTGTSSDVGGYNYVSWYQQHPGKAPKLMIYEVSNRPSGVSNRFSGSKSGNTASLTISGLQAEDEADYYCSSYTSSSTRVFGGGTKLTVL
As for B5, the binding result is recorded as “binds”.

B6: C83A4 (antibody, V domains shown)
VH: QVQLQESGPGLVKPSQTLSLTCTVSGGSISSGGYYWSWIRQHPGKGLEWIGYIYYSGSTYYNPSLKSRVTISVDTSKNQFSLKLTSVTAADTAVYYCASEPTFRQSSISWYHYGMDVWGQGTTVTVSS
VL: B5 VL with G31R, E52D, R99L, G103T, L107V
In the case of B6, the binding result was “binds”.

B7: C81A10 (antibody, V domains shown)
VH: QVQLVQSGAEVKKPGSSVKVSCKASGGTFRSYAISWVRQAPGQGLEGMGGIIPIFGTTNYAQKFQGRVTITADESTSTAYMELSSLRSEDTAVYYCARSEWGDGYNQYYFDQWGQGALVTVSS
VL: DIQMTQSPSSLSAFVGDRVTITCRASQSISRYLNWYQQKPGKAPKVLIYAASSLQSGVPSRFSGSGSGTDFTLTISSLQPEDFATYYCQQSYSTLTFGGGTKVEIK
B7: the binding result is “binds”.

B8: C81D9 (antibody, V domains shown)
VH: QVQLVESGGGVVQPGRSLRLSCAASGFTFSSYAMHWVRQAPGKGLEWVAVISYDGSNKYYADSVRGRFTISRDNSKNTLYLQMNSLRAEDTAVYYCARAWGGSYRGGLDYWGQGTLVTVSS
VL: DIQMTQSPSSLSASVGYRVTITCRASQSISSWLAWYQQKPGKAPKLLIYKASSLESGVPSRFSGSGSGTEFTLTISSLQPDDFATYYCQQYNSYWTFGQGTKVEIK
Regarding B8, the binding result is given as “binds”.

B9: C41N6 (antibody, V domains shown)
VH: QVQLVESGGGVVQPGGSLRLSCAASGFTFSSYGMHWVRQAPGKGLEWVAFIRYDGSNNYYADSVKGRFTISRHNSKNTLYLQMNSLRAEDTAVYYCAKVTITIFGVVIYGMDVWGQGTTVTVSS
VL: not shown
With B9, the binding result is given as “binds”.

B10: G32R10 (antibody, V domains shown)
VH: EVQLLESGGGLVQPGGSLRLSCAASGFTFSRYAMSWVRQAPGKGLEWVSAISGSGGSTYYSDSVEGRFTISRDNSKNTLYVQMNSLRAEDTAVYYCAKDAGFIPLYYFDYWGQGTLVTVSS
VL: EIVMTQSPVTLSVSPGERATLSCRASQSVSSNLAWYQQKPGQAPRLLIYGASTRATGIPARFSGSGSGTEFTLIISSLQSEDFAVYNCQQYNNWPWTFGQGTKVEIK
Take B10: the binding result is “binds”.

B11: C81E2 (antibody, V domains shown)
VH: not shown
VL: DIQMTQSPSSLSASVGDRVTITCRASQGISNYLAWYQQKPGKVPKLLIYAASTLQSGVPSRFSGSGSGTDFTLTISSLQPEDVATYYCQKYNSASPLTFGGGTKVEIK
Turning to B11, the binding result was “binds”.

B12: C107A1 (antibody, V domains shown)
VH: QVQLVESGGGVVQPGRSLRLSCAASGFTFSSYGMHWVRQAPGKGLEWVAVISYDGSNKYYADSVKGRFTISRDNSKNTLYLQMNSLRAEDTAMYYCAKDGSGSYSWFDPWGQGTLVTVSS
VL: EIVMTQSPATLSVSPGERATLSCRASQSVSSNLAWYQQKPGQAPRLLIYGASTRATGIPARFGGSGSGTEFTLTISSLQSEDFAVYYCQQYNNGFTFGPGTKVDIK
On to B12, for which the binding result is on record as “binds”.

B13: C107A2 (antibody, V domains shown)
VH: EVQLVESGGGLVQPGGSLRLSCAASEFTVNNNYMSWVRQAPGKGLEWVSIIYSGGSTYYADSVKGRFTISRDNSKNTLYLQMNSLRAEDTAVYYCARNHITMVRGVIKYQDYWGQGTLVTVSS
VL: not shown
For the molecule B13, the binding result was “binds”.

B14: C89A5 (antibody, V domains shown)
VH: QVQLVESGGGVVQPGRSLRLPCAASGFSFSGYAMHWVRQAPDKGLEWMAVISFDGSTKTYADSVRGRFTISRDNSKNTLYLQIHTLRTEDTAVYYCARGGGGGDGAFDNWGGGTMVTVSS
VL: DVVMTQSPLSLPVTLGQPASISCRSSQSLVYSDGNTYLIWFQQRPGQSPRRLIYKVSNRDSGVPDRFSGSGSGTDFTLKISRVEADDVGVYYCMQTTHWPYTFGQGTKLEIK
Regarding B14, the binding result is given as “binds”.

B15: C163E6 (antibody, V domains shown)
VH: QVQLVESGGGVVQPGRSLRLSCAASGFTFNTYAVYWVRQAPGKGLEWVAVISYDGINKYYADSVKGRFTISRDNSKNTLYLQMNSLRPEDTAVYYCARVKSGSYKGCFDYWGQGTLVTVSS
VL: not shown
Regarding B15, the binding result is on record as “binds”.

B16: C93D10 (antibody, V domains shown)
VH: QVQLVQSGAEVKKPGASVKVSCKASGYTFTSYYMHWVRQAPGQGLEWMGIINPSGGSTSYAQKFQGRVTMTRDTSTSTVYMELSSLRSEDTAVYYCARDPSSDYDFWSGWGNQYYYYGMDVWGQGTTVTVSS
VL: DIQLTQSPSFLSASVGDRVTITCRASQGISSYLAWYQQKPGKAPKLLIYAASTLQSGVPSRFSGSGSGTEFTLTISSLQPEDFATYYCQQLNSYPFTFGPGTKVDIK
For the molecule B16, the binding result is “binds”.

B17: C83B7 (antibody, V domains shown)
VH: QVQLVQSGAEVKKPGASVKVSCKASGYTFTSYYLHWVRQAPGQGLEWMGIINPSGGSTSYAQKFQGRVTMTRDTSTSTVYMELRSLRSEDTAVYYCARDSAPRDYDFWSGYYFGVNGKGSSMDVWGQGTTVTVSS
VL: QSALTQPPSASGSPGQSVTISCTGTSSDVGGYNYVSWYQQHPGKAPKLMIYEVSKRPSGVPDRFSGSKSGNTASLTVSGLQAEDEADYYCSSYAGSNNYVFGTGTKVTVL
Turning to B17, the binding result was “binds”.

B18: C15E7 (antibody, V domains shown)
VH: QVQLQQWGAGLLKPSETLSRTCAVYGGSFSGYYWTWIRQPPGMALEWIGDINHGGVTNYNPSLKSRVTISVDTSKNQFSLRLTSVTAADTAVYYCARRLLGDPRPASSSLSLRRVSYMDVWDKGTTVTVSS
VL: DIQMTQSPSSMPASVGDRVTITCRASQSISNYLNWYQQEPGRAPKLLIYGASSLQSGVPSRFGGSGSGTEFTLTITALQPEDSATYYCQQIHGAPPITFGQGTRLEIK
As for B18, the binding result is “binds”.

B19: C12B2 (antibody, V domains shown)
VH: QVQLVQSGAEVKKPGSSVKVSCKASGGTFSSYAISWVRQAPGQGLEWMGGIIPIFGTANYAQKFQGRVTITADESTSTAYMELSSLRSEDTAVYYCARMDYYDSSGYYLDYWGQGTLVTVSS
VL: EIVLTQSPATLSLSPGERATLSCRASQSVSNFLAWYQQKPGQAPRLLIYDASNRATGIPARFSGSGSGTDFTLTISSLEPEDFAVYYCLQRSNWPPRLTFGGGTKVEIK
On to B19, for which the binding result is “binds”.

B20: C15C9 (antibody, V domains shown)
VH: QVQLQQWGTGLLKPSETLSLTCAVYGGSFSGYYWTWIRQPPGKGLEWIGEINHSGTTTYNPSLKSRVTISVEKSENQFSLKLNSVTAADTAVYYCARGSRCSSASCLFYYFYYIDVWGKGTTVTVSS
VL: not shown
As for B20, the binding result is given as “binds”.

B21: C12D2 (antibody, V domains shown)
VH: EVQLVESGGGLVQPGGSLRLSCAASGFTFSSYWMSWVRQAPGKGLEWVANIKQDGSEKYYVDSVKGRFIISRDNAKNSLYLQMNSLRAEDTAVYYCARDQRRFLEWLSYYYYMDVWGKGTTVTVSS
VL: not shown
Turning to B21, the binding result was “binds”.

B22: C15C7 (antibody, V domains shown)
VH: QVQLVESGGGVVQPGRSLRLSCAASGFTFSSYGMHWVRQAPGKGLEWVAVISYDGSNKYYADSVKGRFTISRDNSKNTLYLQMNSLRAEDTAVYYCAKDAYYYDSSGYYPRDYYYYYYYMDVWGKGTTVTVSS
VL: not shown
Regarding B22, the binding result is given as “binds”.

B23: C163E11 (antibody, V domains shown)
VH: QVQLVESGGGVVQPGRSLRLSCAASGFTFSIYAIHWVRQAPGKGLEWVAVVSYDGSNKYYADSVRGRFTISRDNSKNTLYLQMNSLRADDTAVYYCARDSAGGYSYLFDYWGQGTLVTVSS
VL: not shown
For B23, the binding result is “binds”.

B24: C12I9 (antibody, V domains shown)
VH: QVQLVQSGAEVKKPGASVKVSCKASGYTFTGYYMHWVRQDPGQGLEWMGWINPNSGVTNYAQKFQGWVTMTRDTSISTAYMELSRLKSDDTAVYYCAREVGAVAGTFYYGLDVWGQGTTVTVSS
VL: QSALTQPRSVSGSPEQSVAISCTGTSSDVGGNNYVSWYQQHPGKAPKLMIYDVSKRPSGVPDRFSGSKSGNTASLTISGLQAEDEADYYCCSYAGSYTFGVVFGGGTKLTVL
In the case of B24, the binding result is recorded as “binds”.
